Source: doi:10.1101/444570 (bioRxiv, 2018)

Columns and labels:
[1] = target: COMA complex (Ame1/Okp1/Ctf19/Mcm21) (S. cerevisiae (budding yeast), UniProt P38313;P53298;Q02732;Q06675); test: cross-linking
[2] = target: Ctf19/Mcm21 heterodimer (wild type) (S. cerevisiae (budding yeast), UniProt Q02732;Q06675); test: pull-down
Ctf19/Mcm21 heterodimer (wild type), sequence (Q02732 whole entry, chain 1 of 2): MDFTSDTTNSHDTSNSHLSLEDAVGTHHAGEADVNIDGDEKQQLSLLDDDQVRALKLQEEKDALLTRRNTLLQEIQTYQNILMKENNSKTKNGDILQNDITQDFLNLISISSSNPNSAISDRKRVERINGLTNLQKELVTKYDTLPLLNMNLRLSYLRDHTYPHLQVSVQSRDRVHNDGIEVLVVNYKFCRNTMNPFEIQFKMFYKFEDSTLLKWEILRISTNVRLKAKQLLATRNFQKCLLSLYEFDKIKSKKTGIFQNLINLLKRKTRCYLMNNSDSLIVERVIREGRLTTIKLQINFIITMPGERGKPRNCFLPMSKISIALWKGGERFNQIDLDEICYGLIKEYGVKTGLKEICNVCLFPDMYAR
Ctf19/Mcm21 heterodimer (wild type), sequence (Q06675 whole entry, chain 2 of 2): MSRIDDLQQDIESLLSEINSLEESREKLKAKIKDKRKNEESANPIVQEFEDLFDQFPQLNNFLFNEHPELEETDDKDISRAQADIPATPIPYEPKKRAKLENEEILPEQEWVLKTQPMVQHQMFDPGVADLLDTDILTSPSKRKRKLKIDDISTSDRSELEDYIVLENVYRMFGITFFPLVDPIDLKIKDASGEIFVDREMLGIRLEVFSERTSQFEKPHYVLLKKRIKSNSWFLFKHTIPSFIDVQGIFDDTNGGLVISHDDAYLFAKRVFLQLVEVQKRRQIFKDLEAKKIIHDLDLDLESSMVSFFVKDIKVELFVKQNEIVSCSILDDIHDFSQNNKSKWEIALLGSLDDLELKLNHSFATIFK

COMA complex (Ame1/Okp1/Ctf19/Mcm21), sequence (P38313 whole entry, chain 1 of 4): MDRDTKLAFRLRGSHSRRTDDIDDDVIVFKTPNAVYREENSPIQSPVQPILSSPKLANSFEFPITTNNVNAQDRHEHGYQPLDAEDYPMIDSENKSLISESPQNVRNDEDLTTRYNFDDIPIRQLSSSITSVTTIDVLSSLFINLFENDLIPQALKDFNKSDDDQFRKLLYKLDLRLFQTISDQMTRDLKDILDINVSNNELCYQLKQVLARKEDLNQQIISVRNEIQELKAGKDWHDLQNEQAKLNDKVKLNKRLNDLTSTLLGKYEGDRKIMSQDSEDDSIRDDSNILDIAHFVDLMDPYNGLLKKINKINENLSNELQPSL
COMA complex (Ame1/Okp1/Ctf19/Mcm21), sequence (P53298 whole entry, chain 2 of 4): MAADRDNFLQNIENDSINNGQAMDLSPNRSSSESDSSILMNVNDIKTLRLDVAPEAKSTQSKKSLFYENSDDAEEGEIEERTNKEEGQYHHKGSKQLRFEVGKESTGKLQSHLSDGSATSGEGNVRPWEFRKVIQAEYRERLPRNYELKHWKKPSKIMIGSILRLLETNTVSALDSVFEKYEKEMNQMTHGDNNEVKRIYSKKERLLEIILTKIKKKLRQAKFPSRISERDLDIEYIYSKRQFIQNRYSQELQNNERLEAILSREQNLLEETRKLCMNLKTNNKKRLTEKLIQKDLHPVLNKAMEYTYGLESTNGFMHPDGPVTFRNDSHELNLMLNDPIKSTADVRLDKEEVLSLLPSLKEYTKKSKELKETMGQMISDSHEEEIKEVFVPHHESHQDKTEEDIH
COMA complex (Ame1/Okp1/Ctf19/Mcm21), sequence (Q02732 whole entry, chain 3 of 4): as the sequence (Q02732 whole entry, chain 1 of 2) above
COMA complex (Ame1/Okp1/Ctf19/Mcm21), sequence (Q06675 whole entry, chain 4 of 4): as the sequence (Q06675 whole entry, chain 2 of 2) above

| binding result [1] | binding result [2] | Binder |
| --- | --- | --- |
| binds |  | Sli15-2xStrep/Ipl1 (wild type, not phosphorylated) (complex) chain 1: MDWAIKAARKKTQRKPGSTRSIIETLDDLNNLTTDAHSEINQRLYESSEWLRNNVYMNTLKYEDKKMEESLISPENTHNKMDVEFPKMKGEYELSNSQNDAAKDVTKTPRNGLHNDKSITPKSLRRKEVTEGMNRFSIHDTNKSPVEPLNSVKVDANESEKSSPWSPYKVEKVLRESSKTSESPINTKRFDNQTWAAKEEMENEPILQALKKAESVKVKPPPNSGIARSQRRSNMFVPLPNKDPLIIQHIPPTKSSGSIPKVRTVKESPIAFKKKSTINSPAIRAVENSDTAGSTKASSVFDRLSSIPTKSFENKISRGNVGHKYSSSSIDLTGSPMKKVSQKFKSINSTDTDMQEALRDIFSVKNKITKNNSPKGKNSRKSSIPRFDKTSLKLTTHKKLAIIAEQKKKSKHSSDVHKTGSRPHSISPTKISVDSSSPSKEVKNYYQSPVRGYLRPTKASISPNKNKNLTTSQTPHRLKIKEKTLRKLSPNIADISKPESRKSKNYRLTNLQLLPPAEAERDDLKKKFDKRLSGIMRSQQEHHRRKQEKQKRMSHLEQDLKKQTSFSNDYKDIRLKESLAPFDNHVRDTINKNTAFSTDNILATINTVDHREIIGNVTPKIASVNDSLPEINTDSEDEASVTLAAWAKSPYLQEQLIRQQDINPQTIFGPIPPLHTDEIFPNPRLNRLKPRQIVPKRS chain 2: MQRNSLVNIKLNANSPSKKTTTRPNTSRINKPWRISHSPQQRNPNSKIPSPVREKLNRLPVNNKKFLDMESSKIPSPIRKATSSKMIHENKKLPKFKSLSLDDFELGKKLGKGKFGKVYCVRHRSTGYICALKVMEKEEIIKYNLQKQFRREVEIQTSLNHPNLTKSYGYFHDEKRVYLLMEYLVNGEMYKLLRLHGPFNDILASDYIYQIANALDYMHKKNIIHRDIKPENILIGFNNVIKLTDFGWSIINPPENRRKTVCGTIDYLSPEMVESREYDHTIDAWALGVLAFELLTGAPPFEEEMKDTTYKRIAALDIKMPSNISQDAQDLILKLLKYDPKDRMRLGDVKMHPWILRNKPFWENKRL |
|  | binds | Sli15∆N2-370-2xStrep/Ipl1 (complex) chain 1: MNNSPKGKNSRKSSIPRFDKTSLKLTTHKKLAIIAEQKKKSKHSSDVHKTGSRPHSISPTKISVDSSSPSKEVKNYYQSPVRGYLRPTKASISPNKNKNLTTSQTPHRLKIKEKTLRKLSPNIADISKPESRKSKNYRLTNLQLLPPAEAERDDLKKKFDKRLSGIMRSQQEHHRRKQEKQKRMSHLEQDLKKQTSFSNDYKDIRLKESLAPFDNHVRDTINKNTAFSTDNILATINTVDHREIIGNVTPKIASVNDSLPEINTDSEDEASVTLAAWAKSPYLQEQLIRQQDINPQTIFGPIPPLHTDEIFPNPRLNRLKPRQIVPKRS chain 2: MQRNSLVNIKLNANSPSKKTTTRPNTSRINKPWRISHSPQQRNPNSKIPSPVREKLNRLPVNNKKFLDMESSKIPSPIRKATSSKMIHENKKLPKFKSLSLDDFELGKKLGKGKFGKVYCVRHRSTGYICALKVMEKEEIIKYNLQKQFRREVEIQTSLNHPNLTKSYGYFHDEKRVYLLMEYLVNGEMYKLLRLHGPFNDILASDYIYQIANALDYMHKKNIIHRDIKPENILIGFNNVIKLTDFGWSIINPPENRRKTVCGTIDYLSPEMVESREYDHTIDAWALGVLAFELLTGAPPFEEEMKDTTYKRIAALDIKMPSNISQDAQDLILKLLKYDPKDRMRLGDVKMHPWILRNKPFWENKRL |
